Measured values: PMC314469, “Protein Interaction Networks by Proteome Peptide Scanning” (PLoS Biology, 2004)

T1: Yfr024 SH3 (LSB3_YEAST), P43603
T1 chain: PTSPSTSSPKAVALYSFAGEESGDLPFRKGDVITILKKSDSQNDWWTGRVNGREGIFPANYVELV

T2: Rvs167 SH3 (RV167_YEAST), P39743
T2 chain: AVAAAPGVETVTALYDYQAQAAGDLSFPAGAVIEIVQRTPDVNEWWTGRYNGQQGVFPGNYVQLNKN

T3: Boi1 SH3 (BOI1_YEAST), P38041
T3 chain: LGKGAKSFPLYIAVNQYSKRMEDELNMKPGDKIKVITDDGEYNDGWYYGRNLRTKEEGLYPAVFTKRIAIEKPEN

T4: Boi2 SH3 (BOI2_YEAST), P39969
T4 chain: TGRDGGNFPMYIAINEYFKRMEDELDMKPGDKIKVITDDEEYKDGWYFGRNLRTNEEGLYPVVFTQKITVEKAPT

T5: Yhr016c SH3 (YSC84_YEAST), P32793
T5 chain: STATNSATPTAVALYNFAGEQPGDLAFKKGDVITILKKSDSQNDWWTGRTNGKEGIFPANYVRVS


Experiments:
Assay in all cases: SPOT array
[1] = target: T1, Yfr024 SH3 (LSB3_YEAST), P43603
[2] = target: T2, Rvs167 SH3 (RV167_YEAST), P39743
[3] = target: T3, Boi1 SH3 (BOI1_YEAST), P38041
[4] = target: T4, Boi2 SH3 (BOI2_YEAST), P39969
[5] = target: T5, Yhr016c SH3 (YSC84_YEAST), P32793

| normalised SPOT signal, Boehringer light units (BLU); mean over the file's lines of this peptide [1] | normalised SPOT signal, Boehringer light units (BLU); mean over the file's lines of this peptide [2] | normalised SPOT signal, Boehringer light units (BLU); mean over the file's lines of this peptide [3] | normalised SPOT signal, Boehringer light units (BLU); mean over the file's lines of this peptide [4] | normalised SPOT signal, Boehringer light units (BLU); mean over the file's lines of this peptide [5] | Binder |
| --- | --- | --- | --- | --- | --- |
| 7880 | 166 | 97.7 | 244 | 2660 | FKMPKKPQRSKEEV [YOR243C 86-99] |
| 3150 | 48.4 | 56.4 | 29.9 | 762 | EYHPIKPLRSSSST [YDL180W 234-247] |
| 5160 | 398 | 3280 | 308 | 269 | FGTPVAPTRTLSRK [YOR070C 179-192] |
| 15 | 15.5 | 52.7 | 20.1 | 124 | EVTPEEPSKKIRTS [YML071C 500-513] |
| 0 | 19.5 | 25.1 | 0 | 105 | EVTPEEPSKSIDNK [YML071C 475-488] |
| 1060 | 0 | 57.9 | 76 | 210 | FFQPEYPVRMEPDL [YLR128W 194-207] |
| 923 | 34.7 | 51.2 | 26 | 138 | EVIPSWPRRGKVEE [YNL022C 436-449] |
| 267 | 33.7 | 80.9 | 38.8 | 143 | FKAPTNPRKVYSKR [YMR035W 79-92] |
| 217 | 91.8 | 61.5 | 44.1 | 0 | FSHPLSPLKSNFID [YGL177W 74-87] |
| 50.5 | 47.2 | 78.2 | 55.1 | 43.7 | FENPTIPKKSYSEF [YPR045C 291-304] |
| 298 | 22.5 | 154 | 9.4 | 288 | FFHPAIPLKNAAPF [YER066C-A 112-125] |
| 1540 | 68.3 | 231 | 20.4 | 301 | FISPHLPMKGRLVL [YGR068C 471-484] |
| 370 | 202 | 103 | 56.6 | 177 | EYSPLVPSKMSADK [YBR044C 356-369] |
| 15300 | 8120 | 218 | 66.4 | 8100 | FLLPNLPMRTFKEI [YIL105C 444-457] |
| 53 | 28.7 | 70.3 | 2.4 | 135 | FDFPLSPVKHENPT [YBR098W 196-209] |
| 59100 | 2090 | 5160 | 493 | 18500 | EVTPKVPERPSRRK [YIR003W 4-17] |
| 44800 | 6840 | 9870 | 87.1 | 42100 | FHDPILPRRTSTFL [YHL028W 526-539] |
| 0 | 32.5 | 120 | 15.3 | 242 | EYFPISPEKKEEME [YGR237C 591-604] |
| -0 | 9 | 48.7 | 26.4 | 85.5 | EVYPIEPPKVVSLK [YLR306W 88-101] |
| 24.9 | 26.9 | 112 | 55.5 | 53.7 | ETVPTEPTRYNYQN [YER132C 1359-1372] |
| 72 | 47.2 | 80.7 | 41.7 | 83.5 | EVSPVEPKRTENER [YDR507C 687-700] |
| 68 | 61.6 | 63.1 | 149 | 129 | FFDPESPNKGKLIL [YPL269W 491-504] |
